How the values were obtained:
[1] = target: T1, Ss-RmlD (Saccharothrix syringae, UniProt A0A5Q0HAF2); experiment: one-pot reaction with Ss-RmlABC; product yield by HPLC; type: biochemical; conditions: pH 8.5, 30 °C; dTDP-4-keto-rhamnose made in situ
T1 construct: gene rfbD
T1 sequence (A0A5Q0HAF2 1-297): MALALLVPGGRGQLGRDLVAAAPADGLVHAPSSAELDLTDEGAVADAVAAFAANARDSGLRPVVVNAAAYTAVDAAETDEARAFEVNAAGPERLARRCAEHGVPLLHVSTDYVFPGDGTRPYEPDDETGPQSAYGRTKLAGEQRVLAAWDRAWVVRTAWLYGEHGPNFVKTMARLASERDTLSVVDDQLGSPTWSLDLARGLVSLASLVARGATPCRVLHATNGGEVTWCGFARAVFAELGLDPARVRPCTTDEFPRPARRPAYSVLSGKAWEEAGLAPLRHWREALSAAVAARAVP

[2] = substrate: Cc1cn([C@H]2C[C@H](O)[C@@H](COP(=O)(O)OP(=O)(O)O[C@H]3O[C@H](CO)[C@@H](O)[C@H](O)[C@H]3O)O2)c(=O)[nH]c1=O; experiment: purified protein; type: biochemical, Saccharothrix syringae; conditions: optimal conditions (50 °C, pH 7.5, 0.02 mM NAD+)
[3] = substrate: O=P(O)(O)O[C@H]1O[C@H](CO)[C@@H](O)[C@H](O)[C@H]1O; experiment: malachite green PPi release assay with inorganic pyrophosphatase; type: biochemical, Saccharothrix syringae; conditions: 1 mM dTTP, optimal conditions (37 °C, pH 9.0, 2.5 mM Mg2+)
[4] = substrate: Cc1cn([C@H]2C[C@H](O)[C@@H](COP(=O)(O)OP(=O)(O)OP(=O)(O)O)O2)c(=O)[nH]c1=O; experiment: as above; type: biochemical, Saccharothrix syringae; conditions: 1 mM Glc-1-P, optimal conditions (37 °C, pH 9.0, 2.5 mM Mg2+)

Q: With NC(=O)C1=CN([C@@H]2O[C@H](COP(=O)(O)OP(=O)(O)OC[C@H]3O[C@@H](n4cnc5c(N)ncnc54)[C@H](OP(=O)(O)O)[C@@H]3O)[C@@H](O)[C@H]2O)C=CC1 [NADPH] as the molecule, how does the “one-pot reaction with Ss-RmlABC; product yield by HPLC” value [1] read?
A: NADPH was an essential cofactor for the final step of reduction catalyzed by Ss-RmlD

B1: Ss-RmlB (Saccharothrix syringae) (protein)
chain: MRVLVTGGAGFIGSHYVRELVGGSYPAYADAEVVVLDKLTYAGNEANLAPVADSPRLTFVRGDICDRELVVGVMRGVDVVVHFAAESHVDRSITGSADFVLTNVLGTQVLLQAALEAGVAKFVHVSTDEVYGSIAEGSWTEDHVLEPNSPYSASKASSDLLARAFHRTHGLPVCVTRCSNNYGPYQFPEKVIPLFVTNLVDGRKVPLYGDGLNVRDWLHVDDHCRGIQLVLEGGRGGEIYNIGGGTELTNRELTARLLEATGRDWDSFVEPVEDRKGHDRRYSVDITKISTELGYAPRVDFAEGLAATVRWYRENRAWWEPLKQRAALTG
Q: Which Km [2] does the source give for B1 here?
A: 98.60 µM

Q: And the kcat [2]?
A: 11.2 s⁻¹

B2: Ss-RmlA (Saccharothrix syringae) (protein)
chain: MKGIILAGGSGTRLHPITQAVSKQLLPVYDKPMVYYPLSVLMLAGIREILLISTPTDLPLFRRLLGDGSQFGLSVSYAEQAQPNGLAEAFVIGADFVGDDDVSLVLGDNIFYGQGFSRLLQHHAATLDGCVLFGYPVKDPERYGVGEVDATGRLVSIEEKPAAPKSNKAITGLYFYDNQVVDIARNLRPSARGELEITDVNLTYLRQGRAHLVDLGRGFAWLDTGTHDSLLEAGQFVQVLEHRQGVRIACPEEIALRMGFITADECYALGEKLAKSGYGQYVMYVAREVR
Q: For B2, which Km [3] is on record?
A: 117.30 µM

Q: What about the kcat [3] of the same molecule?
A: 3.46 s⁻¹

Q: What about the Km [4] of the same molecule?
A: 49.56 µM

Q: What about the kcat [4] of the same molecule?
A: 5.39 s⁻¹

From PMC8606822, “Novel dTDP-L-Rhamnose Synthetic Enzymes (RmlABCD) From Saccharothrix syringae CGMCC 4.1716 for One-Pot Four-Enzyme Synthesis of dTDP-L-Rhamnose” (Frontiers in Microbiology, 2021)
